Experiments:
Conditions in all cases: protein: recombinant; tags: His tag removed by TEV; single strand
[1] = target: T1, hnRNPA2 1-189 (tandem RRMs) (UniProt P22626-2 1-189); assay: ITC; 4600 uM protein, 115 uM RNA; N 0.785; ITC: 20 mM NaPi pH 6.75, 150 mM NaCl, 25 C (also 20 mM KPi pH 6.75; 20 mM MES pH 6.7, 150 mM NaCl, 10 mM CaCl2); protein in syringe, RNA in cell
[2] = target: T1, hnRNPA2 1-189 (tandem RRMs); assay: ITC; 20 mM NaPi pH 6.75, 150 mM NaCl; N about 1; ITC: 20 mM NaPi pH 6.75, 150 mM NaCl, 25 C (also 20 mM KPi pH 6.75; 20 mM MES pH 6.7, 150 mM NaCl, 10 mM CaCl2); protein in syringe, RNA in cell
[3] = target: T1, hnRNPA2 1-189 (tandem RRMs); assay: ITC; 7000 uM protein, 800 uM RNA; N 0.921; ITC: 20 mM NaPi pH 6.75, 150 mM NaCl, 25 C (also 20 mM KPi pH 6.75; 20 mM MES pH 6.7, 150 mM NaCl, 10 mM CaCl2); protein in syringe, RNA in cell
[4] = target: T1, hnRNPA2 1-189 (tandem RRMs); assay: ITC; 7000 uM protein, 800 uM RNA; N 0.798; ITC: 20 mM NaPi pH 6.75, 150 mM NaCl, 25 C (also 20 mM KPi pH 6.75; 20 mM MES pH 6.7, 150 mM NaCl, 10 mM CaCl2); protein in syringe, RNA in cell
[5] = target: T1, hnRNPA2 1-189 (tandem RRMs); assay: ITC; 20 mM KPi pH 6.75, no NaCl; N about 1; ITC: 20 mM NaPi pH 6.75, 150 mM NaCl, 25 C (also 20 mM KPi pH 6.75; 20 mM MES pH 6.7, 150 mM NaCl, 10 mM CaCl2); protein in syringe, RNA in cell
[6] = target: T1, hnRNPA2 1-189 (tandem RRMs); assay: ITC; ITC: 20 mM NaPi pH 6.75, 150 mM NaCl, 25 C (also 20 mM KPi pH 6.75; 20 mM MES pH 6.7, 150 mM NaCl, 10 mM CaCl2); protein in syringe, RNA in cell

T1 sequence (P22626 other isoform, or with tags, fused parts or gaps): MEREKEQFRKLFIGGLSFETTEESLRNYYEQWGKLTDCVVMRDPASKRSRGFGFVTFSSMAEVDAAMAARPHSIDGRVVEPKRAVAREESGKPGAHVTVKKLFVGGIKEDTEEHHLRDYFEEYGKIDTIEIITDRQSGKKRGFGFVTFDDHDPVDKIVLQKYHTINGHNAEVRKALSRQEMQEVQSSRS

For GCCAAGGAGCC (ssRNA) [rA2RE11], which Kd [1] is on record?
The Kd was 19.8 ± 0.4 µM.

And the Kd [2]?
The Kd was about 52 µM.

What about the Kd [3] of the same binder?
Its Kd is 139 ± 10 µM.

What about the Kd [4] of the same binder?
Its Kd is 143 ± 10 µM.

And the Kd [5]?
Its Kd is about 35 µM.

AAGGACUAGC (ssRNA) [Wu_10mer] was tested. Which Kd [6] did it give?
Its Kd is 0.228 ± 0.002 µM.
